Literature values as cited in article PMC2908543, “Uropathogenic Escherichia coli Modulates Immune Responses and Its Curli Fimbriae Interact with the Antimicrobial Peptide LL-37” (PLoS Pathogens, 2010).

System: Pseudomonas aeruginosa
Details: ref [47]
Source text: Biofilm inhibition by antimicrobial polypeptides has previously been described for Pseudomonas aeruginosa. […] A direct interaction with biofilm components was not investigated in these studies. The effect was rather related to an influence of LL-37 on the bacterial gene expression profile or an influence of lactoferrin on free iron. These and our findings stress an important anti-biofilm role of antimicrobial polypeptides in host defense. It is likely that the anti-biofilm activit ...

B1: lactoferrin (protein, UniProt P02788 20-710, looked up)
Lactotransferrin: GRRRSVQWCAVSQPEATKCFQWQRNMRKVRGPPVSCIKRDSPIQCIQAIAENRADAVTLDGGFIYEAGLAPYKLRPVAAEVYGTERQPRTHYYAVAVVKKGGSFQLNELQGLKSCHTGLRRTAGWNVPIGTLRPFLNWTGPPEPIEAAVARFFSASCVPGADKGQFPNLCRLCAGTGENKCAFSSQEPYFSYSGAFKCLRDGAGDVAFIRESTVFEDLSDEAERDEYELLCPDNTRKPVDKFKDCHLARVPSHAVVARSVNGKEDAIWNLLRQAQEKFGKDKSPKFQLFGSPSGQKDLLFKDSAIGFSRVPPRIDSGLYLGSGYFTAIQNLRKSEEEVAARRARVVWCAVGEQELRKCNQWSGLSEGSVTCSSASTTEDCIALVLKGEADAMSLDGGYVYTAGKCGLVPVLAENYKSQQSSDPDPNCVDRPVEGYLAVAVVRRSDTSLTWNSVKGKKSCHTAVDRTAGWNIPMGLLFNQTGSCKFDEYFSQSCAPGSDPRSNLCALCIGDEQGENKCVPNSNERYYGYTGAFRCLAENAGDVAFVKDVTVLQNTDGNNNEAWAKDLKLADFALLCLDGKRKPVTEARSCHLAMAPNHAVVSRMDKVERLKQVLLHQQAKFGRNGSDCPDKFCLFQSETKNLLFNDNTECLARLHGKTTYEKYLGPQYVAGITNLKKCSTSPLLEACEFLRK
notes: antimicrobial polypeptide
bacterial surface motility mediated by type IV pili: increased bacterial surface motility
